In the supplement of paper PMC9170038:

System: MS2 coat protein
Experiment: apparent KD of MS2 coat protein; designed switch direction (-1 OFF switch, 1 ON switch): -1; higher = weaker reporter binding
Outline: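 Normalised cluster fluorescence was curve-fitted, and each design's median over clusters is its apparent KD. Before this, SNAP-549-labelled MS2 coat protein was titrated from 0.7 or 1.5 nM, doubling to 3 µM, over RNA switches transcribed on Illumina chips by stalled E. coli RNA polymerase. Titrations had no input, 200 uM small-molecule ligand, or an oligonucleotide input, and steps lasted 0.8–1.5 h (lowest) to 10–20 min (highest).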

[1] = Eterna round: R95, input ligand: microRNA oligo, concentration not stated
[2] = input ligand: microRNA oligo, concentration not stated
[3] = Eterna round: R95, input ligand: FMN 200 uM
[4] = Eterna round: R95, input ligand: none

Sequence | apparent KD of MS2 coat protein [1] [nM] | apparent KD of MS2 coat protein (input ligand: FMN 200 uM) [nM] | apparent KD of MS2 coat protein (input ligand: none) [nM] | apparent KD of MS2 coat protein [2] [nM] | apparent KD of MS2 coat protein [3] [nM] | apparent KD of MS2 coat protein [4] [nM]
UAAAACGGAGGAUAUACUGACCCUCAAAACAGACGCGCUGGACAUGAGGAUCACCCAUGUAGAAGGCCGAAUGC [Titeustele] (puzzle: Exclusion 2) | 21.7 |  |  |  |  | 
UAAACAAGCGAAAGAUCCCACAUGAGGAUCACCCAUGUGCUCGUCUUAUAAGGUACUGUGACGAAAGUCACGGUACC [Sensor 3, v1 - 91 v19] (Eterna round: R97, puzzle: Sensor, turn-off variant 1) |  | 37.9 | 41 |  |  | 
UAAAGUAUAUAGGAUAUCUAGCUGGAUACAGCUAGAGAAGGAUGUACAUGAGGAUCACCCAUGUAAAUCAGUGA [Ex6/14-A3] (Eterna round: R97, puzzle: Exclusion 6) |  | 33.9 | 16.5 |  |  | 
UAAAUAAAUGUAGGAUAUCUGCACGUGUAGUGCAGAGAAGGACAUGAGGAUCACCCAUGUAUAGUAGCUUCGGCUACAAAUAAU [ENG1-C3] (Eterna round: R96, puzzle: Exclusion NG 1) |  | 110 | 88.8 | 69.3 |  | 
UAAGAAUACCGAGGAUAUGGUAGUACAUAUUUACCAGAAGGCGGACUCAACAUGAGGAUCACCCAUGUAUAAAGGGUAUUAGGU [JR_ExcNG1_Sub043] (Eterna round: R96, puzzle: Exclusion NG 1) |  | 94.1 | 64.3 | 58.3 |  | 
UAAGAAUACUGAGGAUAUGCUAGUUUAUCUCAAGCAGAAGGCGGACUCAACAUGAGGAUCACCCAUGUAAGACGGGUACUAGAU [Ex NG1 #13] (Eterna round: R96, puzzle: Exclusion NG 1) |  | 319 | 832 | 59 |  | 
UAAGAGUAUGUUAGGAUAUGCUGGUCCUUGGAUCAGCAGAAGGAACAUGAGGAUCACCCAUGUAGAAUCUUUUA [Mod of JL 17 - Jieux - Brourd's mod of Exclusion 4] (Eterna round: R97, puzzle: Brourd's mod of Exclusion 4) |  | 74.8 | 21.3 |  |  | 
UAAGCAAGUGAGCCGAUUCACAUGAGGAUCACCCAUGUAAGAGAGGAUAUUUGAUUGGAUCGAUUAGAGAAGGUUCUAAUGUGG [Eternabot solution 25] (Eterna round: R96, puzzle: Exclusion NG 3) |  | 87.2 | 37.2 | 28.9 |  | 
UAAGCUCUGUCAGGAUAUCCCUGUAAACGCAACGGAGAAGGGACAUGAGGAUCACCCAUGUGCGGGCCCAACGCGCUUGGGUCC [Gelaisve] (Eterna round: R96, puzzle: Exclusion NG 1) |  | 56.6 | 26.3 | 20.6 |  | 
UAAUAACAAGCGAGAUCCUACAUGAGGAUCACCCAUGUGCUCGUCUUAUAAGGUACUGUGACGAAAGUCACGGUACC [Eli 87 + Mat D67] (Eterna round: R97, puzzle: Sensor, turn-off variant 1) |  | 17.9 | 20.1 |  |  | 
UAAUAGAUGGUUAGGAUAUGCUGGCCUAGGCCGCGGCAGAAGGAACAUGAGGAUCACCCAUGUAGUAGGAUCCA [Eternabot (L2) Solution 15] (Eterna round: R97, puzzle: Brourd's mod of Exclusion 4) |  | 204 | 98.6 |  |  | 
UAAUAGUGAGGAUAUACAGAAUCUGGGUCCCGCGUGUUGAGACAUGAGGAUCACCCAUGUAGAAGGCACAAAAU [Tetiage] (puzzle: Exclusion 2) | 112 |  |  |  |  | 
UAAUGUAUAUAGGAUAUCUAGCUGGAAACAGCUAGAGAAGGAUGUACAUGAGGAUCACCCAUGUAAAUCUCAAU [Ex6/12-B1] (Eterna round: R97, puzzle: Exclusion 6) |  | 27.4 | 19.1 |  |  | 
UAAUUAAAUGUAGGAUAUCUGCACGUGUAGUGCAGAGAAGGACAUGAGGAUCACCCAUGUAGAUCAAAUUAAAUUAAUUUAAUU [ENG1/5-D3] (Eterna round: R96, puzzle: Exclusion NG 1) |  | 54 | 23.7 | 21.5 |  | 
UAAUUAAGUGUGAGGAUAUGCUGGUCCUUGGAUCAGCAGAAGGCACAUGAGGAUCACCCAUGUAAUAUAUAUAU [Mat - Exclusion 4 - JL Mod - D53] (puzzle: Brourd's mod of Exclusion 4) | 108 |  |  |  | 361 | 104
UAAUUAAUAAGAUCAAUUAAUUAACAUGAGGAUCACCCAUGUGAGGAUAUCAGCUCGUUUAGAGCUGAGAAGGCACAAUAAUUA [ExNG3/17-C2] (Eterna round: R96, puzzle: Exclusion NG 3) |  | 72 | 46.8 | 41.6 |  | 

Sequence | apparent KD of MS2 coat protein [1] [nM] | apparent KD of MS2 coat protein (input ligand: FMN 200 uM) [nM] | apparent KD of MS2 coat protein (input ligand: none) [nM] | apparent KD of MS2 coat protein [2] [nM] | apparent KD of MS2 coat protein [3] [nM] | apparent KD of MS2 coat protein [4] [nM]
UAAUUAAUUAAUUAAUAAUACAUGAGGAUCACCCAUGUAGAUCCUACAUACAAUUUAAGUAGCUCGUCUUAUAAUUA [Stov1/1-A1] (Eterna round: R97, puzzle: Sensor, turn-off variant 1) |  | 206 | 264 |  |  | 
UAAUUACAUGAGGAUCACCCAUGUGAGGAUAUGUCCAUAUUCGGCAAAUCGGAUAUGGACAGAAGGCACACCGG [JR_Exclusion1_Sub009] (puzzle: Exclusion 1) | 55.8 |  |  |  |  | 
UACACUGCAUGAGGAUCAAACAUGAGGAUCACCCAUGUGUAGCAAGCUUUUUGCUCGUCUUAUAAAUAUGUAGUGUA [Electric Eye 10 - Jieux - Sensor, turn-off variant 1] (Eterna round: R97, puzzle: Sensor, turn-off variant 1) |  | 13.4 | 12.9 |  |  | 
UACAUGAGGAUCACCCAUGUUUUGUCGUGUAUGGUAUUUAUCUAGGAUAUCAAGUUAAUUAUUUAUGAGAAGGAGAAUAUUAAU [JMF's solution 28] (Eterna round: R96, puzzle: Exclusion NG 3) |  | 37 | 39 | 31.7 |  | 
UACAUGAGGAUCACCCAUGUUUUGUCGUGUAUGGUAUUUAUCUAGGAUAUCAAGUUACUUAUUUAUGAGAAGGAGAAUAUUAAU [JMF's solution 30] (Eterna round: R96, puzzle: Exclusion NG 3) |  | 39.2 | 25.2 | 21.2 |  | 
UACAUGAGGAUCACCCAUGUUUUGUCGUGUAUGGUAUUUAUCUAGGAUAUCAAUCAAUUUAUUUAUGAGAAGGAGAAUAUUAAU [JMF's solution 49] (Eterna round: R96, puzzle: Exclusion NG 3) |  | 37.8 | 33.8 | 26 |  | 
UACAUGAGGAUCACCCAUGUUUUGUCGUGUAUGGUAUUUAUCUAGGAUAUCAAUGUAUUUAGUUAUGAGAAGGAGAAUAUUAAU [JMF's solution 46] (Eterna round: R96, puzzle: Exclusion NG 3) |  | 38.1 | 35.3 | 32 |  | 
UACAUGAGGAUCACCCAUGUUUUGUCGUGUAUGGUAUUUAUCUAGGAUAUCAAUUUAUUUAUUUAUGAGAAGGAGAAUAUUAAU [JMF's solution 5] (Eterna round: R96, puzzle: Exclusion NG 3) |  | 36.3 | 41.2 | 28.1 |  | 
UACAUGAGGAUCACCCAUGUUUUGUCGUGUAUGGUAUUUAUCUAGGAUAUCGUGUUAUUUAACCACGAGAAGGAGAGUAUCAAU [MOD3 Solution 21 by JMF] (Eterna round: R96, puzzle: Exclusion NG 3) |  |  |  | 21.5 |  | 
UACCAGGUUCAGGAUAUGCCCUCGAAGAGAGGCGCAGAAGGGAACACAUGAGGAUCACCCAUGUCAGCCGCUUC [Eternabot (Original) Solution 45] (Eterna round: R97, puzzle: Exclusion 6) |  | 26.6 | 17.1 |  |  | 
UACGAGUUAGGAUAUGCAUUGGGCUCGCUUUCCUUCGAUAAACUUGAGGAUCACCCAAGUAGAAGGAACUUGUA [Mod 35 - Jieux - Exclusion 2] (Eterna round: R97, puzzle: Exclusion 2) |  | 42.3 | 16.4 |  |  | 
UACUUCUGAGGAUAUACAUGAGGAUCACCCAUGUUGAUACCGACCUAAAGUCCAUUACGUAGAAGGCAGCAGUG [Eternabot (L1) Solution 91] (Eterna round: R97, puzzle: Exclusion 3) |  | 35.4 | 23.6 |  |  | 
UAGAAGUUCAACGAGUGAGACAUGAGGAUCACCCAUGUGGUGGUAGGGAACAAGCUUUUUGCACGUACUUAUGAGGA [JR_SV3TOV1_Sub005] (puzzle: Sensor v3, turn-off variant 1) | 269 |  |  |  | 368 | 414
UAGCAGCGAGGAUAUACAGACGGGUCCAGUACGUGUCUUGGACUUGAGGAUCACCCAAGUAGAAGGCGCCACAG [salish99_ex2_r4_604] (Eterna round: R97, puzzle: Exclusion 2) |  | 41.3 | 40 |  |  | 
UAGCAUUGCCAAAGGUAGUGCAUUACAUGAGGAUCACCCAUGUAGGAUAUGGUAGGCUUUGCUUACCAGAAGGACAUGAUAAUU [Mat - Exclusion NG 3 - Mod of JL - D15] (Eterna round: R96, puzzle: Exclusion NG 3) |  | 112 | 43.1 | 29.6 |  | 
UAGCGACCAUACAUGAGGAUCACCCAUGUGAAUGCCCACCGCGAGGAUAUCGAGUCCACUCGGGCCGAGAAGGCGCGACCUCAA [Eternabot solution 43] (Eterna round: R96, puzzle: Exclusion NG 3) |  | 34.8 | 35.5 | 16.1 |  | 
